Data taken from PMC10686824, “Bacterial cGAS senses a viral RNA to initiate immunity”.

T1: His6-MBP-Ssc-CdnE03 (UniProt P0DXA6 1-324)
T1 sequence: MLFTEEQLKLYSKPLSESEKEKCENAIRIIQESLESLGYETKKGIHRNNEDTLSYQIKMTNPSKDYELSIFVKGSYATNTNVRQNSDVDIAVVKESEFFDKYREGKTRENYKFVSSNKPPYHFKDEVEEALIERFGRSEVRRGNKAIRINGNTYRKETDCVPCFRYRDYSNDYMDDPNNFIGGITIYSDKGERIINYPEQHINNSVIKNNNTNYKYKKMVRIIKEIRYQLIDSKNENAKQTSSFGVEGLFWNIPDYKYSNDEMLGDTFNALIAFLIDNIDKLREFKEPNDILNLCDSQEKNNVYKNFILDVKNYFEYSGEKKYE

B1: cabRNA PhiJ1/2 (34 nt) (structured_RNA)
RNA: GAAUGUUAUGGCAAUGCUACUAAGUCAGCUGUGC
B2: cabRNA PhiJ4 (49 nt) (structured_RNA)
RNA: UUCCGGAAGAUGAUUAGUCAUGUAUGAAAUACUUGAUCUAAAAAAUAAA
B3: 80-nt RNA from 80alpha-vir(cabRNA100) (structured_RNA)
RNA: AUGGUGCGUAUAUCGACAAAAAAGAAAUUACUCAGAAGAAUAUUGAGAUUAAUAUUGGUGAGUACGAUGACGAAAGUUAA
B4: 200-nt RNA from 80alpha-vir(cabRNA57) (structured_RNA)
RNA: AGAGGAGAACCUCAAGAGGCUUACAGUAAGAAAUAUGACCAUUUAAACGAUGAAGUGGAAAAAGAGGUUACUUACACAAUCACACCAACUUUUGAAGAGCGUCAGAGAUCUAUUGACCACAUACUAAAAGUUCAUGGUGCGUAUAUCGACAAAAAAGAAAUUACUCAGAAGAAUAUUGAGAUUAAUAUUGGUGAGUACGA

Target: T1, His6-MBP-Ssc-CdnE03
Test: pull-down; total RNA of infected cells; EMSA: 50 mM CAPSO pH 9.4, 50 mM KCl, 5 mM Mg acetate, 1 mM DTT, 4 C 25 min, 1 uM RNA, 2% agarose in 1x TB; pull-down on cobalt resin, buffer not given in material
Conditions: protein: recombinant, tags: His6-MBP

Row | Binder | binding result (hairpin (predicted)) | binding result
1 | B1 | binds | 
2 | B2 | binds | 
3 | B3 |  | binds
4 | B4 |  | binds
